The values that follow come from patent publication US20140193915, “COMPOSITIONS AND METHODS FOR CUSTOM SITE-SPECIFIC DNA RECOMBINASES” (Monsanto Technology, LLC, published 2014).

Series [1] deals with T1, sN-TALER IV-1 (GinH106Y-TALE13) (synthetic).
T1 chain: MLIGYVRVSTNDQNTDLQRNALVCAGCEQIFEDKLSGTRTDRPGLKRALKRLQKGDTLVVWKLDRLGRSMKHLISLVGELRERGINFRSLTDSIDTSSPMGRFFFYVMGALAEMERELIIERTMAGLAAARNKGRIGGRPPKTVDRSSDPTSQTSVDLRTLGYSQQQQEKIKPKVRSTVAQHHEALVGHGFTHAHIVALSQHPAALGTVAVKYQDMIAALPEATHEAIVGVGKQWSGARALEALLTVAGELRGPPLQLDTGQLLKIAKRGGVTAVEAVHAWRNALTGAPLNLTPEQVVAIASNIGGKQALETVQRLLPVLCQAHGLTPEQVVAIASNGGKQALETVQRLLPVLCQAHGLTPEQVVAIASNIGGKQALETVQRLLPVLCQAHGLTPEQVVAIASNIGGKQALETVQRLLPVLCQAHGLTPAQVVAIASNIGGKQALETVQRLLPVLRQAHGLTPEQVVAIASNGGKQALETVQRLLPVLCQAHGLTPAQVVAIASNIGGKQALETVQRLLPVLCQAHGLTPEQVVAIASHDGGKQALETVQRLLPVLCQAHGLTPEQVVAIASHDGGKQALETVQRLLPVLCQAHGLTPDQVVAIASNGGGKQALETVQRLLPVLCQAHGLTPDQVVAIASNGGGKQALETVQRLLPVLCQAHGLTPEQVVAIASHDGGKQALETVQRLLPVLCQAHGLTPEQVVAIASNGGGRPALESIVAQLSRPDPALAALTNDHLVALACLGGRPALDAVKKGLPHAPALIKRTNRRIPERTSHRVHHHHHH
Briefly: cell_activity; E. coli; sequenced. Conditions: tags: 6-His; chain copies: 2 per site, tetramer in synapsis (stated). The protocol: To test for recombination, E. coli DH5alpha cells were co-transformed with different combinations of TALER expression construct and TALER reporter construct pairs (Tables 6 and 7). The N-TALER expression and reporter constructs were in an approximate 1:1 mass ratio during the transformation. The co-transformed bacteria were plated on media with chloramphenicol, kanamycin, and X-gal then incubated at 37° C. for 18 to 36 hours. Control samples consisted of transformations using the reporter construct alone. Control transformants were similarly plated. The bacterial transformation protocol was either heat shock or electroporation per standard molecular biology techniques.
PCR was used to confirm that the predicted recombination had occurred in colonies which were white or sectored. PCR primers were designed so that a PCR product of approximately 877 bp (depending on the length of the spacers) would be produced from the non-recombined reporter constructs, and a PCR product of approximately 470 bp would be produced from reporter constructs that had undergone N-TALER-mediated recombination. Standard colony PCR was performed on white, blue, and sectored colonies from several plates representing different pairs of N-TALER expression construct and reporter construct co-transformation combinations.
To confirm that the recombination occurred as predicted, several of the PCR products were sequenced. Sequencing results for PCR products generated from white colonies from the sN-TALER IV-1 and Gin18TALE+1; sN-TALER IV-1 and Gin20TALE+0; or sN-TALER IV-1 and Gin20TALE+10 reporter constructs are shown in FIG. 7. No mismatches were detected relative to the predicted recombinase core sequence in any of the PCR products sequenced thereby confirming a base-perfect recombination with N-TALERs (the few single-nucleotide mismatches detected in the sN-TALER IV-1 and Gin20TALE+0 combination were rechecked and consequently dismissed as sequencing error).

For series [2], the target named is T2, sN-TALER IV-5 (synthetic).
T2 chain: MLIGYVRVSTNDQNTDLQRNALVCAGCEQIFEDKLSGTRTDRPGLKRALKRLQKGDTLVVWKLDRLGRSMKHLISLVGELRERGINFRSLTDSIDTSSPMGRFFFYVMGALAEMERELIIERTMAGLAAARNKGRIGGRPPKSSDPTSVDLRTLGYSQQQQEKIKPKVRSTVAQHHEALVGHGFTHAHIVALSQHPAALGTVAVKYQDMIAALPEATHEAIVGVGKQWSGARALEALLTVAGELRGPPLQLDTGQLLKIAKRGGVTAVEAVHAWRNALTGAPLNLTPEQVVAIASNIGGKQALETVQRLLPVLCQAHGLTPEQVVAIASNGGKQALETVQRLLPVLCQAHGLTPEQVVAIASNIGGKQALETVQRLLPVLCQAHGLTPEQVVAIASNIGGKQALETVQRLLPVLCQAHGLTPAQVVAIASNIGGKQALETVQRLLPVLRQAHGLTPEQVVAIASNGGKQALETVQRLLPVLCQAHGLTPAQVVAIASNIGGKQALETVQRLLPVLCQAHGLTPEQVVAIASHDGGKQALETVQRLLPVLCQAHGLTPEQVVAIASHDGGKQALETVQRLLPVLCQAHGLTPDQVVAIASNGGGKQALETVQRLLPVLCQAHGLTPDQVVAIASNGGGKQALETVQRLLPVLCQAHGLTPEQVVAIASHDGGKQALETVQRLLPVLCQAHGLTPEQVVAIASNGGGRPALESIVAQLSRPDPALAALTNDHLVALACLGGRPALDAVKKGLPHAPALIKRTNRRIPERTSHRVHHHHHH
Briefly: cell_activity; E. coli. As to conditions: tags: 6-His. In a few lines: (§1)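 DH5alpha cells co-transformed (heat shock or electroporation) with N-TALER expression and reporter plasmids at ~1:1 mass ratio; reporter alone as control. Plated on chloramphenicol/kanamycin/X-gal, grown 37° C. for 18 to 36 hours; recombination scored by colony colour.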

The target of series [3] is T3, sN-TALER IIa-1 (synthetic).
T3 chain: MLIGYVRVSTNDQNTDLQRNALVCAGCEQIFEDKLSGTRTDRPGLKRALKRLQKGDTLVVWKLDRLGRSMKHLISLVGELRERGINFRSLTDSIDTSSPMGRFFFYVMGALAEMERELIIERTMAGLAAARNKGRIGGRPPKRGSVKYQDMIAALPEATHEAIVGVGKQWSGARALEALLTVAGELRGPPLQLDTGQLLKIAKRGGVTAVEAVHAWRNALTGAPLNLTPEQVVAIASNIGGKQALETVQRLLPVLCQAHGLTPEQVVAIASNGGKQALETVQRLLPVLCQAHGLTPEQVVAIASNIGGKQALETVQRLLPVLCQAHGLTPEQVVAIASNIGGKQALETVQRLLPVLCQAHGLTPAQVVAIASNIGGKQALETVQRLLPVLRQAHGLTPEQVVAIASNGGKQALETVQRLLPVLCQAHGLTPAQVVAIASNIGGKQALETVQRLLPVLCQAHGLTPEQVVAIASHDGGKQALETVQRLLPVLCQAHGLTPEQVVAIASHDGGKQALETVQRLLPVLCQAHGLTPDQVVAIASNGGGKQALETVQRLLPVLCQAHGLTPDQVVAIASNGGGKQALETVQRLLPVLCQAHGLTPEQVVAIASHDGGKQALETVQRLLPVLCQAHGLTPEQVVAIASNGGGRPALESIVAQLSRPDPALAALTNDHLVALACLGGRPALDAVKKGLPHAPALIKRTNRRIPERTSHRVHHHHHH
Briefly: cell_activity; E. coli. As to conditions: tags: 6-His. Summed up: as §1

B1: Gin18TALE+1 (dsDNA)
DNA 1: AGAAGGTATTTATATCCAAAACCATGGTTTACAATATAAATACCTTCT
DNA 2: AGAAGGTATTTATATTGTAAACCATGGTTTTGGATATAAATACCTTCT
Take B1: the activity in series [1] came to 1 score.

B2: Gin20TALE+0 (dsDNA)
DNA 1: AGAAGGTATTTATATCCAAAACCATGGTTTACAGTATAAATACCTTCT
DNA 2: AGAAGGTATTTATACTGTAAACCATGGTTTTGGATATAAATACCTTCT
As for B2, the activity turned out to be 4.5 score in series [2] and 1 score in series [1].

B3: Gin18TALE+0 (dsDNA)
DNA 1: AGAAGGTATTTATACCAAAACCATGGTTTACATATAAATACCTTCT
DNA 2: AGAAGGTATTTATATGTAAACCATGGTTTTGGTATAAATACCTTCT
With B3, the activity in series [3] was determined as 4 score.
